Like-named read-outs stand apart in the source and are kept apart here.
Experiments:
[1] = biological target: T1, Claudin 18.2 (CLDN18.2), expressed on CHOS-CLDN 18.2 / HEK293-CLDN 18.2 / HCC827-CLDN 18.2 cells (human, UniProt P56856-2 1-261); test: cell-based or functional assay
[2] = biological target: T1, Claudin 18.2 (CLDN18.2), expressed on …; test: FACS, CHOS-CLDN18.2 cells
Experimental: (§1) The initial concentration of the antibody was 20 μg/ml, it was diluted at 1:4, and incubated at 4° C. for 60 min.

[3] = biological target: T1, Claudin 18.2 (CLDN18.2), expressed on …; test: FACS, CHOS-CLDN18.2 cells; remark: listed apart in the source
Experimental: as §1

[4] = biological target: T1, Claudin 18.2 (CLDN18.2), expressed on …; test: FACS, CHOS-CLDN18.2 cells, 0.020 µg/ml
Experimental: as §1

[5] = biological target: T1, Claudin 18.2 (CLDN18.2), expressed on …; test: FACS, CHOS-CLDN18.2 cells, 0.078 µg/ml
Experimental: as §1

[6] = biological target: T1, Claudin 18.2 (CLDN18.2), expressed on …; test: FACS, CHOS-CLDN18.2 cells, 0.313 µg/ml
Experimental: as §1

[7] = biological target: T1, Claudin 18.2 (CLDN18.2), expressed on …; test: FACS, CHOS-CLDN18.2 cells, 0.005 µg/ml
Experimental: as §1

[8] = biological target: T1, Claudin 18.2 (CLDN18.2), expressed on …; test: FACS, CHOS-CLDN18.2 cells, 1.250 µg/ml
Experimental: as §1

[9] = biological target: T1, Claudin 18.2 (CLDN18.2), expressed on …; test: FACS, CHOS-CLDN18.2 cells, 0.005 µg/ml; remark: listed apart in the source
Experimental: as §1

[10] = biological target: T1, Claudin 18.2 (CLDN18.2), expressed on …; test: FACS, CHOS-CLDN18.2 cells, 0.020 µg/ml; remark: listed apart in the source
Experimental: as §1

[11] = biological target: T1, Claudin 18.2 (CLDN18.2), expressed on …; test: FACS, CHOS-CLDN18.2 cells, 1.250 µg/ml; remark: listed apart in the source
Experimental: as §1

[12] = biological target: T1, Claudin 18.2 (CLDN18.2), expressed on …; test: FACS, CHOS-CLDN18.2 cells, 0 µg/ml (background)
Experimental: as §1

EC50 [2]: 0.27 µg/mL
max [2]: 88600
EC50 [3]: 0.27 µg/mL
max [3]: 88600
FACS reading [4]: 6950
FACS reading [5]: 18200
FACS reading [6]: 51000
FACS reading [7]: 2830
FACS reading [8]: 63700
FACS reading [9]: 2830
FACS reading [10]: 6950
FACS reading [11]: 63700
FACS reading [12]: 732
B1: QP024025 (antibody, human IgG1, V domains shown)
VH: QVQLQQPGAELVRPGASVKLSCKASGYTFTSYWINWVKQRPGQGLEWIGNIYPSDSYTNYNQKFKDKATLTVDKSSSTAYMQLSSPTSEDSAVYYCTRSWRGNSFDYWGQGTTLTVSS
VL: DIVMTQSPSSLTVTAGEKVTMSCKSSQSLLNSGNQKNYLTWYQQKPGQPPKLLIYWASTRESGVPDRFTGSGSGTDFTLTISSVQAEDLAVYYCQNDYSYPFTFGSGTKLEIK
notes: also called IMAB362; 175D10(IMAB362)
EC50 of killing, ADCC (PBMC, HEK293-CLDN18.2 cells) [1]: 0.0156 µg/mL
Killing percentage, ADCC (PBMC, HEK293-CLDN18.2 cells), 0 µg/ml [1]: -1.33%
Killing percentage, ADCC (PBMC, HEK293-CLDN18.2 cells), 0.0001024 µg/ml [1]: -2.74%
Killing percentage, ADCC (PBMC, HEK293-CLDN18.2 cells), 0.000512 µg/ml [1]: 1.7%
Killing percentage, ADCC (PBMC, HEK293-CLDN18.2 cells), 0.00256 µg/ml [1]: 1.49%
Killing percentage, ADCC (PBMC, HEK293-CLDN18.2 cells), 0.0128 µg/ml [1]: 11%
Killing percentage, ADCC (PBMC, HEK293-CLDN18.2 cells), 0.064 µg/ml [1]: 22%
Killing percentage, ADCC (PBMC, HEK293-CLDN18.2 cells), 0.32 µg/ml [1]: 28.2%
Killing percentage, ADCC (PBMC, HEK293-CLDN18.2 cells), 1.6 µg/ml [1]: 30%
Killing percentage, ADCC (PBMC, HEK293-CLDN18.2 cells), 8 µg/ml [1]: 26.2%
Killing percentage, ADCC (PBMC, HEK293-CLDN18.2 cells), 40 µg/ml [1]: 21.6%

Source: patent US20230183352A1 (published 2023)
